Test results: the RNAGym collection of RNA variant scans (doi:10.7554/elife.80360)

B1: Twister Ribozyme (parent)
chain: AACACUGCCAAUGCCGGUCCCAAGCCCGGAUAAAAGUGGAGGGGGCGG

Variants of: B1
Assay: self-cleavage, relative activity (ratio to wild type); higher = more cleavage; co-transcriptional
Work on AACACUGCCAAUGCCGGUCCCAAGCUCGGAUAAAGGUGGAGGGGGCGG [C26U A35G] yielded a self-cleavage of 0.169. Variant AACACUGCCAAUGCCGGUCCCAAGCUCGGAUAAACGUGGAGGGGGCGG [C26U A35C] has a self-cleavage of 0.446. With AACACUGCCAAUGCCGGUCCCAAGCGCGGAUAAAAGUGGAGGGGGCCG [C26G G47C] the self-cleavage was 0.145. In the case of AACACUGCCAAUGCCGGUCCCAAGCGCGGAUAAAAGUGGAGGGGGCUG [C26G G47U], the self-cleavage is reported as 0.116. Variant AACACUGCCAAUGCCGGUCCCAAGCGCGGAUAAAAGUGGAGGGGGCAG [C26G G47A] has a self-cleavage of 0.177. AACACUGCCAAUGCCGGUCCCAAGCGCGGAUAAAAGUGGAGGGGGCGA [C26G G48A] showed a self-cleavage of 0.107. In the case of AACACUGCCAAUGCCGGUCCCAAGCUCGCAUAAAAGUGGAGGGGGCGG [C26U G29C], the self-cleavage is reported as 0.0821. With AACACUGCCAAUGCCGGUCCCAAGCUCGUAUAAAAGUGGAGGGGGCGG [C26U G29U] the self-cleavage was 0.204. Variant AACACUGCCAAUGCCGGUCCCAAGCUCGGAUAAAAGUGGAGGGGUCGG [C26U G45U] has a self-cleavage of 0.145. Work on AACACUGCCAAUGCCGGUCCCAAGCACGGAUAAAAGUGGAGGGGACGG [C26A G45A] yielded a self-cleavage of 0.258. Work on AACACUGCCAAUGCCGGUCCCAAGCACGGAUAAAAGUGGAGGGGUCGG [C26A G45U] yielded a self-cleavage of 0.136. Work on AACACUGCCAAUGCCGGUCCCAAGCACGGAUAAAAGUGGAGGGGGGGG [C26A C46G] yielded a self-cleavage of 0.358. AACACUGCCAAUGCCGGUCCCAAGCACGGAUAAAAGUGGAGGGGGUGG [C26A C46U] gave a self-cleavage of 0.624. In the case of AACACUGCCAAUGCCGGUCCCAAGCACGGAUAAAAGUAGAGGGGGCGG [C26A G38A], the self-cleavage is reported as 0.143. AACACUGCCAAUGCCGGUCCCAAGCACGGAUAAAAGUUGAGGGGGCGG [C26A G38U] showed a self-cleavage of 0.221. With AACACUGCCAAUGCCGGUCCCAAGCUCGGAUAAGAGUGGAGGGGGCGG [C26U A34G] the self-cleavage was 0.147. For AACACUGCCAAUGCCGGUCCCAAGCGCGGAGAAAAGUGGAGGGGGCGG [C26G U31G], the self-cleavage was 0.348. For AACACUGCCAAUGCCGGUCCCAAGCUCUGAUAAAAGUGGAGGGGGCGG [C26U G28U], the self-cleavage was 0.142. AACACUGCCAAUGCCGGUCCCAAGCUCAGAUAAAAGUGGAGGGGGCGG [C26U G28A] gave a self-cleavage of 0.106. Variant AACACUGCCAAUGCCGGUCCCAAGCUCCGAUAAAAGUGGAGGGGGCGG [C26U G28C] has a self-cleavage of 0.134. With AACACUGCCAAUGCCGGUCCCAAGCCAGGAUAAAAGUGGAGGGGGAGG [C27A C46A] the self-cleavage was 0.416. With AACACUGCCAAUGCCGGUCCCAAGCCAGGAUGAAAGUGGAGGGGGCGG [C27A A32G] the self-cleavage was 0.483. With AACACUGCCAAUGCCGGUCCCAAGCCAGGAUUAAAGUGGAGGGGGCGG [C27A A32U] the self-cleavage was 0.446. For AACACUGCCAAUGCCGGUCCCAAGCGCGGAUUAAAGUGGAGGGGGCGG [C26G A32U], the self-cleavage was 0.193. For AACACUGCCAAUGCCGGUCCCAAGCACGGAUAAAAGUGGAGGGGGCAG [C26A G47A], the self-cleavage was 0.142. For AACACUGCCAAUGCCGGUCCCAAGCACGGAUAAAAGUGGAGGGGGCCG [C26A G47C], the self-cleavage was 0.2. In the case of AACACUGCCAAUGCCGGUCCCAAGCUCGGAUAAAAGUGGAGGGAGCGG [C26U G44A], the self-cleavage is reported as 0.537. AACACUGCCAAUGCCGGUCCCAAGCUCGGAUAAAAGUGGAGGGUGCGG [C26U G44U] gave a self-cleavage of 0.249. AACACUGCCAAUGCCGGUCCCAAGCGCCGAUAAAAGUGGAGGGGGCGG [C26G G28C] gave a self-cleavage of 0.142. Variant AACACUGCCAAUGCCGGUCCCAAGCGCUGAUAAAAGUGGAGGGGGCGG [C26G G28U] has a self-cleavage of 0.0926. Work on AACACUGCCAAUGCCGGUCCCAAGCUCGGAUAAAAUUGGAGGGGGCGG [C26U G36U] yielded a self-cleavage of 0.133. With AACACUGCCAAUGCCGGUCCCAAGCUCGGAUAAAAAUGGAGGGGGCGG [C26U G36A] the self-cleavage was 0.0777. AACACUGCCAAUGCCGGUCCCAAGCGCGGAUACAAGUGGAGGGGGCGG [C26G A33C] gave a self-cleavage of 0.129. With AACACUGCCAAUGCCGGUCCCAAGCCAGGAUAAAAGUGGGGGGGGCGG [C27A A40G] the self-cleavage was 0.145. Variant AACACUGCCAAUGCCGGUCCCAAGCCAGGAUAAAAGUGGUGGGGGCGG [C27A A40U] has a self-cleavage of 0.142. Work on AACACUGCCAAUGCCGGUCCCAAGCCAGGAUAACAGUGGAGGGGGCGG [C27A A34C] yielded a self-cleavage of 0.0922. Work on AACACUGCCAAUGCCGGUCCCAAGCCAGGAUAAGAGUGGAGGGGGCGG [C27A A34G] yielded a self-cleavage of 0.139. With AACACUGCCAAUGCCGGUCCCAAGCGCGGAUAAAAGUGGAGGGAGCGG [C26G G44A] the self-cleavage was 0.515. With AACACUGCCAAUGCCGGUCCCAAGCGCGGAUAAAAGUGGAGGGUGCGG [C26G G44U] the self-cleavage was 0.184. Variant AACACUGCCAAUGCCGGUCCCAAGCACGGAUAAAACUGGAGGGGGCGG [C26A G36C] has a self-cleavage of 0.105. Work on AACACUGCCAAUGCCGGUCCCAAGCACGGAUAAAAUUGGAGGGGGCGG [C26A G36U] yielded a self-cleavage of 0.091. AACACUGCCAAUGCCGGUCCCAAGCAUGGAUAAAAGUGGAGGGGGCGG [C26A C27U] showed a self-cleavage of 0.0741. Variant AACACUGCCAAUGCCGGUCCCAAGCGCGGAUAAAAUUGGAGGGGGCGG [C26G G36U] has a self-cleavage of 0.0699. AACACUGCCAAUGCCGGUCCCAAGCGCGGAUAAAAAUGGAGGGGGCGG [C26G G36A] gave a self-cleavage of 0.0913. For AACACUGCCAAUGCCGGUCCCAAGCGCGGAUAAAAGUCGAGGGGGCGG [C26G G38C], the self-cleavage was 0.202. With AACACUGCCAAUGCCGGUCCCAAGCUCGGAAAAAAGUGGAGGGGGCGG [C26U U31A] the self-cleavage was 0.432. Variant AACACUGCCAAUGCCGGUCCCAAGCACGGAUAAAAGUGUAGGGGGCGG [C26A G39U] has a self-cleavage of 0.116. Work on AACACUGCCAAUGCCGGUCCCAAGCACGGAUAAAAGUGAAGGGGGCGG [C26A G39A] yielded a self-cleavage of 0.107. Variant AACACUGCCAAUGCCGGUCCCAAGCUGGGAUAAAAGUGGAGGGGGCGG [C26U C27G] has a self-cleavage of 0.0958. Variant AACACUGCCAAUGCCGGUCCCAAGCUUGGAUAAAAGUGGAGGGGGCGG [C26U C27U] has a self-cleavage of 0.115. Work on AACACUGCCAAUGCCGGUCCCAAGCUAGGAUAAAAGUGGAGGGGGCGG [C26U C27A] yielded a self-cleavage of 0.102. AACACUGCCAAUGCCGGUCCCAAGCGCGGAUAAAAGUGGAGGGGGUGG [C26G C46U] gave a self-cleavage of 0.361. AACACUGCCAAUGCCGGUCCCAAGCUCGGAUAAAAGUGGAGGGGGCGG [C26U] showed a self-cleavage of 0.601. For AACACUGCCAAUGCCGGUCCCAAGCGCGGAUAAAAGUGGAGGGGGCGG [C26G], the self-cleavage was 0.449.
